Results taken from article PMC11558545, “Mechanistic Insights into the Function of 14-3-3 Proteins as Negative Regulators of Brassinosteroid Signaling in Arabidopsis” (Plant and Cell Physiology, 2024).

B1: BSK1^55-512: BSK1 (residues 55–512) after incubation with BRI1^814−1196 (protein)
chain: IPSFSEFSFADLKAATNNFSSDNIVSESGEKAPNLVYKGRLQNRRWIAVKKFTKMAWPEPKQFAEEAWGVGKLRHNRLANLIGYCCDGDERLLVAEFMPNDTLAKHLFHWENQTIEWAMRLRVGYYIAEALDYCSTEGRPLYHDLNAYRVLFDEDGDPRLSCFGLMKNSRDGKSYSTNLAYTPPEYLRNGRVTPESVTYSFGTVLLDLLSGKHIPPSHALDMIRGKNIILLMDSHLEGKFSTEEATVVVELASQCLQYEPRERPNTKDLVATLAPLQTKSDVPSYVMLGIKKQEEAPSTPQRPLSPLGEACSRMDLTAIHQILVMTHYRDDEGTNELSFQEWTQQMKDMLDARKRGDQSFREKDFKTAIDCYSQFIDVGTMVSPTVFGRRSLCYLLCDQPDAALRDAMQAQCVYPDWPTAFYMQSVALAKLNMNTDAADMLNEAAQLEEKRQRGGRGS
modifications: phosphorylated by incubation with BRI1^814−1196 (mainly Ser230); left off: 8xHis, N-terminal, cleaved | tandem StrepII, N-terminal, cleaved
B2: BIN2^7-380: BIN2 (residues 7–380) expressed either in Escherichia coli or in insect cells (protein)
chain: MPAAVVDGHDQVTGHIISTTIGGKNGEPKQTISYMAERVVGTGSFGIVFQAKCLETGETVAIKKVLQDRRYKNRELQLMRVMDHPNVVCLKHCFFSTTSKDELFLNLVMEYVPESLYRVLKHYSSANQRMPLVYVKLYMYQIFRGLAYIHNVAGVCHRDLKPQNLLVDPLTHQVKICDFGSAKQLVKGEANISYICSRFYRAPELIFGATEYTTSIDIWSAGCVLAELLLGQPLFPGENAVDQLVEIIKVLGTPTREEIRCMNPHYTDFRFPQIKAHPWHKIFHKRMPPEAIDFASRLLQYSPSLRCTALEACAHPFFDELREPNARLPNGRPFPPLFNFKQEVAGSSPELVNKLIPDHIKRQLGLSFLNQSGT
modifications: left off: thioredoxin A, N-terminal, cleaved | 8xHis, N-terminal, cleaved | StrepII, N-terminal, cleaved
notes: BIN2 (residues 7–380) expressed either in Escherichia coli or in insect cells
B3: BAK1^250-615: BAK1/SERK3 cytoplasmic domain (residues 250–615) after incubation with BRI1^814−1196 (protein)
chain: RRKKPQDHFFDVPAEEDPEVHLGQLKRFSLRELQVASDNFSNKNILGRGGFGKVYKGRLADGTLVAVKRLKEERTQGGELQFQTEVEMISMAVHRNLLRLRGFCMTPTERLLVYPYMANGSVASCLRERPESQPPLDWPKRQRIALGSARGLAYLHDHCDPKIIHRDVKAANILLDEEFEAVVGDFGLAKLMDYKDTHVTTAVRGTIGHIAPEYLSTGKSSEKTDVFGYGVMLLELITGQRAFDLARLANDDDVMLLDWVKGLLKEKKLEALVDVDLQGNYKDEEVEQLIQVALLCTQSSPMERPKMSEVVRMLEGDGLAERWEEWQKEEMFRQDFNYPTHHPAVSGWIIGDSTSQIENEYPSGPR
modifications: auto- and transphosphorylated by incubation with BRI1^814−1196; sites not given
B4: BRI1^814-1196: isolated BRI1 cytoplasmic domain (residues 814–1196) after incubation with the BAK1 cytoplasmic domain (protein)
chain: GREMRKRRRKKEAELEMYAEGHGNSGDRTANNTNWKLTGVKEALSINLAAFEKPLRKLTFADLLQATNGFHNDSLIGSGGFGDVYKAILKDGSAVAIKKLIHVSGQGDREFMAEMETIGKIKHRNLVPLLGYCKVGDERLLVYEFMKYGSLEDVLHDPKKAGVKLNWSTRRKIAIGSARGLAFLHHNCSPHIIHRDMKSSNVLLDENLEARVSDFGMARLMSAMDTHLSVSTLAGTPGYVPPEYYQSFRCSTKGDVYSYGVVLLELLTGKRPTDSPDFGDNNLVGWVKQHAKLRISDVFDPELMKEDPALEIELLQHLKVAVACLDDRAWRRPTMVQVMAMFKEIQAGSGIDSQSTIRSIEDGGFSTIEMVDMSIKEVPEGKL
modifications: auto- and transphosphorylated by incubation with BAK1^250−615; sites not given
notes: isolated BRI1 cytoplasmic domain (residues 814–1196) after incubation with the BAK1 cytoplasmic domain

Target: T1, Arabidopsis 14-3-3 isoform kappa (14-3-3κ) (Arabidopsis thaliana, UniProt P48348)
T1 construct: Full-length At14-3-3-κ^1−248 (Uniprot-ID P48348, http://uniprot.org); thioredoxin A (trxA) fusion (N, cleaved yes); 8xHis (N, cleaved yes); StrepII (N, cleaved yes); made in house; host or cells: E. coli BL21 (DE3) RIL
Assay: biochemical
Assay type: binding
Settings: ITC; proteins auto-/transphosphorylated or expressed in E. coli or insect cells as described
Source text: Full-length At14-3-3-κ^1−248 (Uniprot-ID P48348, http://uniprot.org), At14-3-3-λ^1−248 (P48349), At14-3-3-ω^1−259 (Q01525) or C-terminal truncated At14-3-3-κ^1−240, At14-3-3-λ^1−240 or At14-3-3-ω^1−237 isoforms and BIN2^7−380 from Arabidopsis were cloned from synthetic genes codon-optimized for expression in E. coli (Geneart, Thermofisher, Tauberbischofsheim, Germany) into vector pMH-HStrxT providing an N-terminal thioredoxin A (trxA) fusion protein containing 8xHis and StrepII affinity tags, and a tobacco etch virus protease (TEV) recognition site. Protein expression in E. coli BL21 (DE3) RIL grown to OD600nm= 0.6 was induced with 0.2 mM ispropyl β-D-galactoside in terrific broth at 16°C for 16 h. Cells were collected by centrifugation at 4500 × g for 30 min, washed in PBS buffer, centrifuged again at 4500 × g for 15 min and snap-frozen in liquid N2. For protein purification cells were resuspended in buffer A (20 mM Tris–HCl pH 8.0, 500 mM NaCl), and lysed by sonication (Branson DS450). The lysate was cleared by centrifugation at 7000 × g for 60 min and filtrated using a 0.45 µm molecular weight cutoff filter (Pall Corporation, Port Washington, NY, USA). The supernatant was loaded onto a Ni^2+ affinity column (HisTrap HP 5 mL, Cytiva Life Sciences, Freiburg im Breisgau, Germany), washed with buffer A and eluted in buffer A supplemented with 250 mM imidazole pH 8.0. The elution fractions containing the trxA-14-3-3 or trxA-BIN2 fusion proteins were loaded onto a 5 mL Strep-Tactin Superflow High Capacity column (IBA Lifesciences, Goettingen, Germany), washed with buffer A and eluted in buffer A supplemented with 2.5 mM desthiobiotin. […] Dimeric (14-3-3s) or monomeric (BIN2) peak fractions were concentrated to 10–40 mg/ml and used directly for biochemistry and crystallization experiments. Point mutations were introduced by site-directed mutagenesis and variants At14-3-3 λ^N233A and 14-3-3 λ^R136L/Y137F were purified using the same protocol as described for the wild type.
The BRI1^814−1196 and BAK1^250−615/SERK3 cytoplasmic domains were purified as previously described ([Bojar et al. 2014]). BSK1 (residues 55–512), BSU1 (residues 1–793) and BIN2 (residues 7–380) were cloned into a modified pACEBac1 plasmid ([Bieniossek et al. 2012]) providing TEV-cleavable N-terminal 8xHis and tandem StrepII affinity tags, and expressed in baculovirus-infected Trichoplusia ni Tnao cells ([Hashimoto et al. 2010]). Cells grown to a density of 1.5 × 10^6 cells ml^−1 were infected with 10 ml of virus subjected to two rounds of viral amplification per 250 ml of cells and incubated for 48 h at 28°C. […]

T1 sequence (P48348 whole entry, the tested form may be a part, canonical isoform): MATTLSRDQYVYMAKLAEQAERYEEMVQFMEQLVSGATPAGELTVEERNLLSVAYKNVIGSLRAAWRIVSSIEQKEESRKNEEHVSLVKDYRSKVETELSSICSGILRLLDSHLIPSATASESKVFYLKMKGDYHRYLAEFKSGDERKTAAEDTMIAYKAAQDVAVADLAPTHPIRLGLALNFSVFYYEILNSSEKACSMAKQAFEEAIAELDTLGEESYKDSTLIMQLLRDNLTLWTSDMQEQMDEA

| Molecule | binding to 14-3-3κ, in words |
| --- | --- |
| B1 | No specific binding was detected |
| B2 | No specific binding was detected |
| B3 | No specific binding was detected |
| B4 | No specific binding was detected |
